Laboratory results published in patent US20260098080A1, “A MODIFIED PROTEIN SCAFFOLD AND USE THEREOF” (EVOLVERITAS BIOTECHNOLÓGIAI KORLÁTOLT FELELOSSÉGU TÁRSASÁG, priority 2022, published 2026).
Where no end group is shown, it is not given here.

How the values were obtained:
[1] = target: rat MASP-2 (in rat serum) (rat, UniProt Q9JJS8 20-685); assay: cell-based or functional assay
[2] = target: T1, human MASP-2 (in normal human serum) (human, UniProt O00187 16-686); assay: cell-based or functional assay
[3] = target: T2, human MASP-2cf CCP1-CCP2-SP (human, UniProt O00187 298-686, limits assumed); assay: SPR, target immobilised
T2 construct: domain: CCP1-CCP2-SP; also called human MASP-2 catalytic fragment

[4] = target: T3, rat MASP-2cf CCP1-CCP2-SP (rat, UniProt Q9JJS8 298-685); assay: SPR, target immobilised
T3 construct: range 298-685; Mw 42309 Da; also called rat MASP-2 catalytic fragment

[5] = target: T1, human MASP-2 (in normal human serum); assay: cell-based or functional assay; remark: listed apart in the source

Sequence of rat MASP-2 (in rat serum) (Q9JJS8 20-685 limits assumed): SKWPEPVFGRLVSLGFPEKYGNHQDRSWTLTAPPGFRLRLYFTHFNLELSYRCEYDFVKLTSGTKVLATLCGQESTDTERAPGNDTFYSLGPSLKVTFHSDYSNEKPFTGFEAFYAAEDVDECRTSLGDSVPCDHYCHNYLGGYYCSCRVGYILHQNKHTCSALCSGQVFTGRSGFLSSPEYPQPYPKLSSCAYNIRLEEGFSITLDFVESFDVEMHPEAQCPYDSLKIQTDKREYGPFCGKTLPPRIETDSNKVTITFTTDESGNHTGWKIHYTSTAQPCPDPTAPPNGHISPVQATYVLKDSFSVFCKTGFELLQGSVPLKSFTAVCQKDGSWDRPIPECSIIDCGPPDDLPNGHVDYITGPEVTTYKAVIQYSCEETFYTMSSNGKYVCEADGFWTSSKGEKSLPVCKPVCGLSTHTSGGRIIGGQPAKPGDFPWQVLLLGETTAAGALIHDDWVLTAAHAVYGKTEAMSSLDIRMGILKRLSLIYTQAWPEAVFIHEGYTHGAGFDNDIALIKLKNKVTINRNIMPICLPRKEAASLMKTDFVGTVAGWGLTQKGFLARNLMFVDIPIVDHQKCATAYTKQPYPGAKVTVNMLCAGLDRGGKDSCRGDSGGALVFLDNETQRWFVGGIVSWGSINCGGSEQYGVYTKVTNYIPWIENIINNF
T3 sequence (Q9JJS8 other isoform, or with tags, fused parts or gaps limits assumed, form in doubt): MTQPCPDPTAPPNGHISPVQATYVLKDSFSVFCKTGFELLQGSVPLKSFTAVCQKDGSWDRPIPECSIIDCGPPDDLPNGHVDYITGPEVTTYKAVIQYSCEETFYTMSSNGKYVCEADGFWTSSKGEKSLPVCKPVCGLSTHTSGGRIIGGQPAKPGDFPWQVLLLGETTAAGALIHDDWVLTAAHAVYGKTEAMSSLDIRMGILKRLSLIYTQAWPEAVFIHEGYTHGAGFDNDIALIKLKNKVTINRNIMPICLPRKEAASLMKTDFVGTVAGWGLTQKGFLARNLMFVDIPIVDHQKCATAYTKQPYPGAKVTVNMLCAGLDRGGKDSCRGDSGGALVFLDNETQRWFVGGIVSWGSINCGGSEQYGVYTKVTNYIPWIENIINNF
T1 sequence (O00187 16-686 limits assumed): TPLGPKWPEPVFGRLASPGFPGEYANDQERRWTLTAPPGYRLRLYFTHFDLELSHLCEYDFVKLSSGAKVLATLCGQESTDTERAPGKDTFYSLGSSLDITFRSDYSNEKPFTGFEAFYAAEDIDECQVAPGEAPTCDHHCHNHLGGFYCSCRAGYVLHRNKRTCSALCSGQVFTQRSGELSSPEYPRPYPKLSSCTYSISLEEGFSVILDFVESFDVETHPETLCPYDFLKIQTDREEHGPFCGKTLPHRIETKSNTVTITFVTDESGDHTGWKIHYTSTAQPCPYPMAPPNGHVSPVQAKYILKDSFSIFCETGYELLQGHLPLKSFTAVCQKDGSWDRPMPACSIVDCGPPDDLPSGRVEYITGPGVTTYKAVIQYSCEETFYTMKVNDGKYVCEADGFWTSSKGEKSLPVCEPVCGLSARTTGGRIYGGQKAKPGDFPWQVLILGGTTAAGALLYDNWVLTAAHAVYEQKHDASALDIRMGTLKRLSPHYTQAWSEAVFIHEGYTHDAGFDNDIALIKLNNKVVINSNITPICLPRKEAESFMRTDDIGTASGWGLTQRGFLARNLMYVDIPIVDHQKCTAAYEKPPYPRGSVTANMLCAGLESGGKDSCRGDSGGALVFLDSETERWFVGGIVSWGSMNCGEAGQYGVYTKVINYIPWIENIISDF
T2 sequence (O00187 298-686 limits assumed): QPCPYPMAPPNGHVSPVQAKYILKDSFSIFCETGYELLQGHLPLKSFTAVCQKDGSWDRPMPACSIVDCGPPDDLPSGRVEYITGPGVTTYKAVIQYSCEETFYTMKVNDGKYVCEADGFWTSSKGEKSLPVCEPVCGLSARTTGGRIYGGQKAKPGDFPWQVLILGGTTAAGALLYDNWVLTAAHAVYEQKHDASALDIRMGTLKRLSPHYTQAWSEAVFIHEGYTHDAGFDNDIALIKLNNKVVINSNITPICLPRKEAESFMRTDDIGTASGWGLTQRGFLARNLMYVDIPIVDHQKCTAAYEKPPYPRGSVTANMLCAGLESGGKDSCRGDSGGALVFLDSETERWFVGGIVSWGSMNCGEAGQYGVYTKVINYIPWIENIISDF

Binder | IC50, lectin pathway C4 deposition, rat serum [1] [nM] | Relative potency, lectin pathway, rat serum [1] [fold vs EVO2] | IC50, lectin pathway C4 deposition, human serum [2] [nM] | Relative potency, lectin pathway, human serum [2] [fold vs EVO2] | Kd [3] [nM] | Relative affinity [3] [fold vs EVO2] | koff [3] [s⁻¹] | kon [3] [M⁻¹ s⁻¹] | Kd [4] [nM] | Relative affinity [4] [fold vs EVO2] | koff [4] [s⁻¹] | kon [4] [M⁻¹ s⁻¹] | Relative potency (relative human lectin pathway inhibitory efficiency compared to EVO2) [5]
EVO2a (designed binder, not fully specified; cysteine pairing not given here, Modified TFPI-D2 Kunitz domain; made as m1) KPDFCFLENDPGPCRAVKRRYFYNNQTKQCERFKYGGCLGNMNNFETLEECKNICEDG | 213 | 0.5 | 215 | 0.6 | 2.95 | 0.6 | 0.0021 | 711000 | 4.73 | 0.8 | 0.00151 | 319000 | –
EVO2b (designed binder, not fully specified; cysteine pairing not given here, Modified TFPI-D2 Kunitz domain; made as m1) KPDFCFLEEDPGPCRAVKRRYFYNNQTKQCERFGYGGCLGNMNNFETLEECKNICEDG | 34.3 | 3.1 | 62.7 | 2.2 | 1.97 | 0.9 | 0.00156 | 790000 | 1.95 | 1.9 | 0.000942 | 484000 | –
EVO2c (designed binder, not fully specified; cysteine pairing not given here, Modified TFPI-D2 Kunitz domain; made as m1) KPDFCFLEEDPGPCRAVKRRYFYNNQTKQCERFYYGGCLGNMNNFETLEECKNICEDG | 34.3 | 3.1 | 22.3 | 6.2 | 1.04 | 1.7 | 0.00161 | 1.55e+06 | 1.31 | 2.8 | 0.000978 | 747000 | –
EVO2d (designed binder, not fully specified; cysteine pairing not given here, Modified TFPI-D2 Kunitz domain; made as m1) KPDFCFLEEDPGPCRALKRRYFYNNQTKQCERFKYGGCLGNMNNFETLEECKNICEDG | 70.9 | 1.5 | 60.3 | 2.3 | 1.19 | 1.5 | 0.00108 | 909000 | 1.08 | 3.4 | 0.000438 | 405000 | –
EVO22a (designed binder, Modified TFPI-D2 Kunitz domain; made as m1) KPDFCFLENDPGPCRAAKRRYFYNNQTKQCERFYYGGCLGNMNNFVTLEECKNICEDG | 10.6 | 10 | 3.7 | 37.1 | – | 40.1 | 9.09e-05 | 2.04e+06 | 0.192 | 18.9 | 0.000163 | 847000 | –
EVO22b (designed binder, not fully specified; cysteine pairing not given here, Modified TFPI-D2 Kunitz domain; made as m1) KPDFCFLENDPGPCRALARRYFYNNQTKQCERFYYGGCLGNMNNFVTLEECKNICEDG | 9.7 | 11 | 13.7 | 10 | 0.21 | 8.5 | 0.00026 | 1.24e+06 | 0.163 | 22.3 | 0.000159 | 975000 | –
EVO211 (designed binder, not fully specified; ends and bridges not checked, Modified TFPI-D2 Kunitz domain; made as m1) KPDFCFLENDPGWCRALKRRYFYNNQTKQCERFGYGGCLGNMNNFVTLEECKNICEDG | 53.2 | 2 | 3.1 | 44 | 0.043 | 41.6 | 6.62e-05 | 1.54e+06 | 2.87 | 1.3 | 0.0027 | 942000 | –
EVO212 (designed binder, not fully specified; ends and bridges not checked, Modified TFPI-D2 Kunitz domain; made as m1) KPDFCFLENDPGLCRALKRRYFYNNQTKQCERFGYGGCLGNMNNFVTLEECKNICEDG | 46.3 | 2.3 | 6.2 | 22.1 | 0.055 | 32.7 | 8.26e-05 | 1.51e+06 | 1.26 | 2.9 | 0.000618 | 492000 | –
EVO213 (designed binder, Modified TFPI-D2 Kunitz domain; made as m1) KPDFCFLENDPGPCRAAKRRYFYNNQTKQCERFGYGGCLGNMNNFVTLEECKNICEDG | 88.7 | 1.2 | 28.3 | 4.9 | 0.542 | 3.3 | 0.000524 | 967000 | 3.81 | 1 | 0.00147 | 386000 | –
EVO215 (designed binder, not fully specified; ends and bridges not checked, Modified TFPI-D2 Kunitz domain; made as m1) KPDFCFLENDPGWCRAAKRRYFYNNQTKQCERFGYGGCLGNMNNFVTLEECKNICEDG | – | – | 22.7 | 6.1 | 0.304 | 5.9 | 0.000559 | 1.84e+06 | – | – | – | – | –
EVO216 (designed binder, not fully specified; cysteine pairing not given here, Modified TFPI-D2 Kunitz domain; made as m1) KPDFCFLENDPGWCRAAKLRYFYNNQTKQCERFGYGGCLGNMNNFVTLEECKNICEDG | – | – | 30.9 | 4.5 | 0.76 | 2.4 | 0.000732 | 963000 | – | – | – | – | –
EVO23a (designed binder) KPDFCFLEEDPGPCRALKRRYFYNNQTKQCERFYYGGCFGNMNNFVTLEECKNICEDG | 14.1 | 7.5 | 3.2 | 43 | – | – | – | – | – | – | – | – | 43.1 fold relative to EVO2
EVO21d (designed binder, not fully specified; cysteine pairing not given here) KPDFCFLEEDPGPCRALKRRYFYNNQTKQCERFSYGGCFGNMNNFVTLEECKNICEDG | 25.9 | 4.1 | 8.3 | 16.6 | – | – | – | – | – | – | – | – | –
